From patent US20020182673A1 come the findings set out here.

The Kd is the free concentration of one partner at which half of the binding sites on the other are occupied at equilibrium, for simple one-to-one binding. The koff is a measure of how fast the partners let go of each other. Broadly, the kon is the second-order rate constant of association.

In assay [1] the target is IL-17RH1 (PRO5801) ECD (residues 1-275), baculovirus, His-tag removed (human). The assay can be described thus: SPR (BIAcore 1000), IL-17RH1 ECD immobilised, IL-17E in solution, 1:1 model. (SPR reads the build-up and loss of mass on a sensor chip optically.)
Assay [2] concerns the target recombinant IL-17E (baculovirus, His-tag removed by thrombin) (human). The assay can be described thus: SPR (BIAcore 1000), IL-17E immobilised, IL-17RH1 ECD in solution, 1:1 model.

In assay [1], “recombinant IL-17E (baculovirus, His-tag removed by thrombin) (ligand)” had a Kd of 1.4 nM, a koff of 0.00062 s⁻¹ and a kon of 430000 M⁻¹ s⁻¹.
For the substance “IL-17RH1 (PRO5801) ECD (residues 1-275), baculovirus, His-tag removed (receptor)”, in assay [2], the Kd came out at 1.1 nM, the off-rate (koff) came out at 0.0007 s⁻¹ and the kon was determined as 670000 M⁻¹ s⁻¹.
